The text below walks through data of US20250057968A1, “ANTI-DLL3 ANTIBODY AND PHARMACEUTICAL USE THEREOF, AND ANTIBODY-DRUG CONJUGATE CONTAINING ANTI-DLL3 ANTIBODY” (Jiangsu Hengrui Pharmaceuticals Co., Ltd., priority 2021, published 2025).

By Kd is commonly meant the constant that tells how readily two partners part at equilibrium. In general, EC50 refers to the concentration that produces a half-maximal response.

Test [1] deals with T1, human DLL3 (ACRO, DLL3-H52H4) (human, UniProt Q9NYJ7 27-479).
T1 construct: bought antigen of the Biacore assay; construct not described
T1 sequence (looked up): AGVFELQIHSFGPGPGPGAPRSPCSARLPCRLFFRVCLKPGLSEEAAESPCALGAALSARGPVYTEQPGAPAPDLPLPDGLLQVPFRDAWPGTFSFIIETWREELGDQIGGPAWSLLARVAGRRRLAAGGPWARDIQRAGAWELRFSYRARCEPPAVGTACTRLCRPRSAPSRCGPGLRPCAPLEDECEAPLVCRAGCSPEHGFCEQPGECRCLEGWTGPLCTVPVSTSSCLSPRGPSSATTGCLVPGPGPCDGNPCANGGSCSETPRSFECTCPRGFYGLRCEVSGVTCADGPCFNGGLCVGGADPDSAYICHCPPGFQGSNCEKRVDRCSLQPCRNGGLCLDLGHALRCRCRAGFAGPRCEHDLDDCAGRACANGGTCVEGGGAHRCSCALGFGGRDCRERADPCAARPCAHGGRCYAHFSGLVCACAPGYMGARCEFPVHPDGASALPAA
The experiment in a line: SPR (Biacore 8K), antibody captured on Protein A chip, 1:1 fit. From the text: Test antibodies were affinity-captured with a Protein A biosensor chip (Cat. #29127556, Cytiva) for 18 seconds, and then the antigens human DLL3 (ACRO, DLL3-H52H4), cynomolgus monkey DLL3 (KACTUS, DLL-RM103), and mouse DLL3 (KACTUS, DLL-MM103) were allowed to flow over the surface of the chip for 180 seconds, followed by 600 seconds of dissociation. Reaction signals were detected in real time using a Biacore 8K (Cytiva) instrument to obtain association and dissociation curves. After the dissociation in each experimental cycle, the biosensor chip was washed and regenerated with a 10 mM glycine-hydrochloric acid solution (pH 1.5) (Cat. #BR-1003-54, Cytiva). A 1:1 model was fit to the data. The results are shown in Table 12-1, Table 12-2, and Table 12-3.

The target in test [2] is T2, Cynomolgus monkey DLL3 full-length protein on CHO-s cells (cynomolgus monkey, UniProt Q9NYJ7 27-618 (human entry)).
T2 construct: also called cynoDLL3/CHO-s
T2 chain: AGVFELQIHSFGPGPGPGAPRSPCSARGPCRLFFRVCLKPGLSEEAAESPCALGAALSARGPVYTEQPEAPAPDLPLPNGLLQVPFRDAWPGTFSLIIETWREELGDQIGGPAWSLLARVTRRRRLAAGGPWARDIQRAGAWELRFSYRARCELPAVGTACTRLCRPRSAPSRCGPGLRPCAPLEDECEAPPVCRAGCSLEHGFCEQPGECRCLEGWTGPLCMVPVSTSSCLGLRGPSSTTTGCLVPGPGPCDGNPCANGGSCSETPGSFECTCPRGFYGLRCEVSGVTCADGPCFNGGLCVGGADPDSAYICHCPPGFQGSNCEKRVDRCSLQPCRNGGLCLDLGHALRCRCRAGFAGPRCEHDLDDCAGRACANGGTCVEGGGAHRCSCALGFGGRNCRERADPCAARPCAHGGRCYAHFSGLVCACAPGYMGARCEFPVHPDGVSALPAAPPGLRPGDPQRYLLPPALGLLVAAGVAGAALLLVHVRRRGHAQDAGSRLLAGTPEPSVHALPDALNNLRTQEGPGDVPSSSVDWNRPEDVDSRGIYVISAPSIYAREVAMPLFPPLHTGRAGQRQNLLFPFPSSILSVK
Description: FACS on cynoDLL3/CHO-s cells. How it is done: (§1) Cells of the DLL3-expressing small cell lung cancer cell lines H1184 (ATCC, Cat. No. CRL-5858), DLL3/H82, cynoDLL3/CHO-s, and RatDLL3/CHO-s were suspended at 1×10^6/mL in FACS buffer (1% BSA+pH 7.4 PBS), and the cell suspensions were added to a 96-well round-bottom plate (Corning, 3795) at 100 μL/well. The plate was centrifuged at 300 g for 5 min, and the supernatant was removed. Different concentrations of test antibodies were added at 100 μL/well. The plate was incubated in the dark in a refrigerator at 4° C. for 1 h. After 3 washes by centrifugation at 300 g, working concentrations of APC anti-human IgG Fc (BioLegend, 410712) or PE F(ab′)2-goat anti-human IgG (invitrogen, H10104) were added. The plate was incubated in the dark in a refrigerator at 4° C. for 40 min. After 3 washes by centrifugation at 300 g, the geometric mean fluorescence intensity was measured on an Invitrogen flow cytometer, and the EC50 values of the antibodies in binding to DLL3-expressing cells were calculated.

Test [3] has as its target T3, Human DLL3 full-length protein on cells (human, UniProt Q9NYJ7 27-618).
T3 sequence: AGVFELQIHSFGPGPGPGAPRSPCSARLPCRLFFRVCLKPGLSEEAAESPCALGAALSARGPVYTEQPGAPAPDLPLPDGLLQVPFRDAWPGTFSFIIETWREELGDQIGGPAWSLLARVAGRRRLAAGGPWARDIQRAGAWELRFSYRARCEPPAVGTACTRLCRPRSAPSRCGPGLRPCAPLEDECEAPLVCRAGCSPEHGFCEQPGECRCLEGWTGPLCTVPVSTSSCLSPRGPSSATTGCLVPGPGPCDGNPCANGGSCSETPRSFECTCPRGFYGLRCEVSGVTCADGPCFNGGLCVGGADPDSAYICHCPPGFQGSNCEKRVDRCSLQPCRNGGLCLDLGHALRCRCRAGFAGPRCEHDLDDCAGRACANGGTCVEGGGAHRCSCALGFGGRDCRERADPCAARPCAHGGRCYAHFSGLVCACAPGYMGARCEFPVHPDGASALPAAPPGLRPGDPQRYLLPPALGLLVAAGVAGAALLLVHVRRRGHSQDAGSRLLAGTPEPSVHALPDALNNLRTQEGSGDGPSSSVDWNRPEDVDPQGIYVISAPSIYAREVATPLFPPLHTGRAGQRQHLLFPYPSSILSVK
The experiment in a line: cell-based or functional assay.

Test [4] addresses T3, Human DLL3 full-length protein on cells. The experiment in a line: FACS on H1184 cells. How it is done: as §1

B1: Hu6 (antibody, human IgG1, kappa, V domains shown)
VH: EVQLVQSGSELKKPGASVKVSCKASGYTFTDYYMNWVRQAPGQGLEWMGIINPYSGVTIYNHKFKGRFALSVDKSSNTAYLQISSLKAEDTAVYYCARQDSLLDYAMDYWGQGTTVTVSS
VL: DIQMTQSPSSLSASVGDRVTITCHASQGISGNMGWLQQKPGKAPKGLIYHGANLEDGVPSRFSGSGSGADYTLTISSLQPEDFADYYCVQYAQFPYTFGGGTKVEIKR
notes: also called hAb6L4H12
The molecule B1 came in with a Kd in test [1] of 0.594 nM. For the same molecule, in test [2], the EC50 was 0.32 nM and the Emax was 1760. In test [3], the “IC50 (nM), cell killing caused by endocytosis of antibodies (DT3C, DMS53/DLL3 cells)” value came out at 0.56 nM and the “Imax, cell killing caused by endocytosis of antibodies (DT3C, DMS53/DLL3 cells)” value was determined as 87.2. Also, in test [4], the EC50 came to 0.06 nM and the Emax is 2070.

B2: Hu100 (antibody, human IgG1, kappa, V domains shown)
VH: EVQLVESGGGLVKPGGSLRLSCAASGFTFSDSGMHWIRQAPGKGLEWVSYISSGSSTIHYADTVKGRFTISRDNAKNSLYLQMNSLRAEDTAVYYCASPLYYYGRSYNAVAYWGQGTTVTVSS
VL: DIQMTQSPSSLSASVGDRVTITCHASQNINVWLSWYQQKPGKVPKLLIYKASDLHTGVPSRFSGSGSGTDFTLTISSLQPEDVATYYCQQGQSYPLTFGGGTKVEIKR
notes: also called hAb100L1H1
For the molecule B2, the Kd in test [1] was 0.471 nM. In test [2], this molecule had an EC50 of 0.55 nM and an Emax of 2080. For the same molecule, in test [3], the “IC50 (nM), cell killing caused by endocytosis of antibodies (DT3C, DMS53/DLL3 cells)” value was determined as 1.47 nM and the “Imax, cell killing caused by endocytosis of antibodies (DT3C, DMS53/DLL3 cells)” value was 86.1. For the same molecule, in test [4], the EC50 is 0.15 nM and the Emax was determined as 2110.
